Source: patent US6822073B2, “Modular peptide-based reagent” (Kimberly-Clark Worldwide, Inc., priority 2001, dated 2004)

Tests used:
[1] = Chemical denaturation: unfolding in urea by intrinsic tryptophan fluorescence; format: physicochemical; details: for m1/2 value of unfolding: 20 μM protein; for m1/2 value of unfolding / Native free energy (ΔG in absence of denaturant): room temperature; for Native free energy (ΔG in absence of denaturant): extrapolated to zero urea
Description: Stability measurements of the protein were performed by measuring protein unfolding in the presence of urea via intrinsic tryptophan fluorescence (Lakowicz, 1983) in a Shimadzu RF5301 fluorometer. The excitation and emission wavelengths were 295 nm and 340 nm respectively. Both excitation and emission monochrometer slits were set at 1.5 nm. Protein (20 μM) was mixed with increasing amounts of urea (in the concentration range of zero to 6.8 M), and the samples were incubated at room temperature for ten hours to ensure that unfolding equilibrium had been achieved. Relative fluorescence was converted into free energy values according to the relation (Pace et al., 1989): [formula]
where yf and yu are the relative fluorescence values for fully folded and fully unfolded DST respectively, yi is the relative fluorescence of the unfolding intermediates, T is the absolute temperature, and R is the gas constant. Linear regression and extrapolation of the relationship ΔG versus [urea] was employed to determine the free energy value in the absence of denaturant (ΔGH2O). Similarly, the fraction unfolded protein (Fu) was calculated from the fluorescence data according to the relation (Pace et al., 1989): [formula]

[2] = target: T1, bovine pancreatic trypsin (Bos taurus, UniProt P00760); assay: Isothermal titration calorimetry (ITC) of binding to bovine pancreatic trypsin; details: for Binding to trypsin by ITC (in words): all experimental conditions, FIGS. 6 and 7; for Stoichiometry / Ka (association constant) / ΔH / ΔS: ITC
T1 sequence (P00760 24-246): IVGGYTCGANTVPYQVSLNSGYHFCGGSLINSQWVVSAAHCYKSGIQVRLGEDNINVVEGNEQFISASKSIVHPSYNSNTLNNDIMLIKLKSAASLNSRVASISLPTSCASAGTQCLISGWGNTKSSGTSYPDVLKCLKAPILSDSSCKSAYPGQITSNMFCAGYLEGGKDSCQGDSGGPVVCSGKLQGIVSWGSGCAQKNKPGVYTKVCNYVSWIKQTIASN
Description: Isothermal titration calorimetry (ITC) was performed with a VP-ITC instrument from MicroCal, inc. Titrations were carried out by injecting 5 μL of an inhibitor solution (at concentration ranges from 0.5 mM to 2.0 mM) into the 1.4 mL stirred reaction cell. APP and APP derivatives ranged in concentration from 50 to 80 μM in the cell. […] Titrations were conducted between 20° C. and 40° C. Typical experimental conditions for the titrations were a 10 second injection period followed by a 240 second delay between injections for a total of 40 injections. Blank titrations of inhibitor into buffer were performed in order to correct for heats of dilution and mixing.
The independent set of multiple binding sites is the most common model for binding experiment evaluations. The analytical solution for the total heat is determined by (Freire et al., 1990): [formula]
where Q is the total heat, V is the cell volume, ΔH is the enthalpy, M is the macromolecule concentration (the binding partner in the cell), n is the binding stoichiometry, L is the ligand concentration (the binding partner in the syringe), and K is the association constant. Data were fit to this model using Origin version 5 (MicroCal, Inc.).
The association constant is related to the van't Hoff enthalpy according to the following relationship: [formula]
The free energy of binding is related to the binding enthalpy by:
or with the incorporation of heat capacity data according to the Gibbs-Helmholtz equation: [formula]
where ΔG is the Gibbs free energy of binding, T0 is the reference temperature, and ΔCp is the heat capacity. The value of ΔCp is calculated from determining the calorimetric enthalpy at two different temperatures: [formula]
By measuring the apparent enthalpy of binding in two different buffers of known enthalpy of ionization, it is possible to measure the net number of protons transferred during the binding events:
where ΔHcor is the actual heat of binding at the pH measured. The sign indicates the direction of proton transfer.

[3] = target: T1, bovine pancreatic trypsin; assay: Surface plasmon resonance (BiaCore-X), trypsin flowed over immobilized peptide; format: binding; details: peptide coupled to CM-5 chip by thiol, trypsin 1 to 100 nM in PBS, FIG. 12
Description: The BiaCore, Inc. BiaCore-X surface plasmon resonance (SPR) device was utilized to measure the interaction between bovine pancreatic trypsin and SAP-1 or SAP-2. For these experiments a carboxymethyl dextran sensor chip (CM-5) was activated with 50 mM N-hydroxysuccinimide, 0.2 M N-ethyl-N′-(dimethylaminopropyl)-carbodiimide at a flow rate of 10 μL per minute for ten minutes. The thiol coupling agent PDEA (2-(2-pyridinyldithio)ethaneamine hydrochloride) at a concentration of 80 mM was passed over the activated surface at a flow rate of 10 μL per minute for five minutes. SAP-1 or SAP-2 at a concentration of 50 ng/μL was coupled to the activated surface at a flow rate of 10 μL per minute for ten minutes. The final surface was inactivated by flowing 50 mM 1-cysteine, 1 M NaCl at a rate of 10 μL per minute for five minutes over the sensor surface. Buffer was switched to phosphate buffered saline (PBS) and bovine pancreatic trypsin was flowed over the sensor surface at a rate of 20 μL per minute, and at concentrations that ranged from 1 to 100 nM.
For this reaction of the type, A+B⇄AB, where A is the free flowing ligand and B is the immobilized ligand, the change in the SPR signal (R) is proportional to formation (for the association phase) or to the dissociation (for the dissociation phase) of the complex AB.
for the association phase. Rmax is the measured response if all of the binding sites in the bound species were occupied, c is the ligand concentration, and Rb is the shift in the baseline signal upon ligand injection. The dissociation phase is evaluated by:
where R0 is the SPR signal at the start of dissociation. A FFT routine separately smoothed the association and dissociation portions of the binding isotherm. Final kinetic analysis (O'Shannessy et al., 1993) was performed using Origin from Microcal, Inc.

Sequence: CPSQPTYPGDPGPVEDLIRFYDNLQQWLNCVTAAC [SAP]
- m1/2 value of unfolding [1]: 2.5 M urea
- Dimerization seen in the unfolding curve (in words) ([1]; FIG. 9): no dimerization phenomenon
- Native free energy (ΔG in absence of denaturant) [1]: -13 kJ/mol
- Binding to trypsin by ITC (in words) [2]: no detectable binding
- Binding to trypsin by ITC (in words), FIG. 6 titration ([2]; peptide 2 mM, trypsin 20 μM, 20 mM cacodylate pH 7.0, 20 mM NaCl, 30° C.): No binding is evident

Sequence: CPSQPTYPGDPPYRIRFGPVEDLIRFYDNLQQWLN CVTAAC (CPSQPTYPGDPPYRIRFGPVEDLIRFYDNLQQWLNCVTAAC; A peptide-based reagent that combines the SEQ ID NO15 interactive domain with the SEQ ID NO11 peptide backbone.) [SAP-1]
- Kinetic rate constant ka (association) [3]: 1.3×10^5
- Kinetic rate constant kd (dissociation) [3]: 1.7×10^−2
- Stabilization of the native state relative to SAP [1]: 8.37 kJ/mol
- m1/2 value of unfolding [1]: 4.0 M urea
- Native free energy (ΔG in absence of denaturant) [1]: -21.3 kJ/mol
- Stoichiometry ([2]; 293 K (20° C.), 20 mM cacodylate pH 7.0, 20 mM NaCl, FIG. 7): 0.975 +/− 0.02
- Ka (association constant) ([2]; 293 K, FIG. 7): 1.65e+06 ± 45000 M⁻¹
- ΔH ([2]; 293 K, FIG. 7): -109 ± 6.07 kJ/mol
- ΔS ([2]; 293 K, FIG. 7): −11.6 +/− 2.2 cal mol^−1 K^−1
- Ka (association constant) ([2]; 303 K): 2.4e+06 ± 37000 M⁻¹
- ΔH ([2]; 303 K): -64.4 ± 8.58 kJ/mol
- ΔS ([2]; 303 K): −21.1 +/− 1.8 cal mol^−1 K^−1
- Stoichiometry ([2]; higher temperature, 303 K): 0.99 +/− 0.03
- Binding to trypsin by ITC (in words) [2]: remarkable binding specificity for trypsin
- ΔCp (heat capacity of binding) ([2]; from calorimetric enthalpy at 293 K and 303 K): −0.51 kcal/mol K

Sequence: CPSQPTYPGDPYKLKY GPVEDLIRFYDNLQQWLNCVTAAC (CPSQPTYPGDPYKLKYGPVEDLIRFYDNLQQWLNCVTAAC; A peptide-based reagent that combines the SEQ ID NO18 interactive domain with the SEQ ID NO11 peptide backbone.) [SAP-2, SAP backbone with library program-selected YKLKY insert]
- Kinetic rate constant ka (association) [3]: 8.2×10^4
- Kinetic rate constant kd (dissociation) [3]: 6.9×10^−2
- Stabilization of the native state relative to SAP [1]: 8.79 kJ/mol
- Stabilization of the native state relative to SAP-1 [1]: 0.42 kJ/mol
- m1/2 value of unfolding [1]: 4.05 M urea
- Stoichiometry ([2]; 25° C., 20 mM cacodylate pH 7.0, FIG. 8): 0.995 +/− 0.06
- Ka (association constant) ([2]; 25° C., FIG. 8): 640000 ± 5300 M⁻¹
- ΔH ([2]; 25° C., FIG. 8): -131 ± 9.62 kJ/mol
- ΔS ([2]; 25° C., FIG. 8): −16.2 +/− 1.22 cal mol^−1 K^−1
- Binding affinity compared with the peptide having SEQ ID NO:21 (in words) ([2]; bovine pancreatic trypsin): slightly lower binding affinity
